The record followed here is publication PMC5698441, “Molecular basis of AKAP79 regulation by calmodulin” (Nature Communications, 2017).

In this test the target is T1, biotin-CaM and GST-AKAP79 (1–153) (Homo sapiens, UniProt P0DP23).
T1 construct: made in house; host or cells: E. coli BL21 (DE3)
Briefly: alphascreen disruption of biotin-CaM / GST-AKAP79 (1–153) interaction. The note with it: 20-mer scanning peptides at 100 nM; biotin-CaM 10 nM; 1 mM CaCl2, 20 mM HEPES pH 7.2; preincubation 1 h 22 °C; mean ± s.e.m., n = 5 (Fig. 2d). The class given is binding. (In general: Bead proximity is the source of the signal in Alpha formats.)

Method: To examine whether this could correspond to the CaM-binding site in AKAP79, we used a complementary method - the amplified luminescent proximity homogenous assay (alpha)-screen technique-to scan the N-terminus of AKAP79 for sequences that could mediate interactions with CaM. […] We screened peptides derived from the N-terminus of AKAP79 for their ability to reduce alphascreen emission. […] The effect of each peptide at 100 nM concentration on CaM–AKAP79 (1–153) interaction is shown in Fig. 2d as log2 emission ratios (with/without peptide).
To determine whether these basic amino acids contribute to the interaction, we compared how effectively peptides of different lengths could disrupt CaM–AKAP79 interaction.
In general, assays were performed in 50 μL buffer consisting of 20 mM HEPES pH 7.2, 100 mM NaCl, 0.1% BSA, 1 mM EGTA, 5 mM MgCl2, 1 mM CaCl2. CaCl2 was excluded where appropriate.
To determine the K Ca for CaM binding to calcineurin and AKAP79, the CaCl2 concentration was varied to produce different free Ca^2+ concentrations on the basis of calculations using maxchelator[43]. After initial incubations, anti-GST acceptor beads (PerkinElmer) were added at 10 ng/μL. […] After 1 h further incubation with vigorous shaking in a thermomixer (1200 r.p.m.), light emission at 568 nm was measured following excitation with a 680 nm laser using a Mithras LB 940 (Berthold Technologies). […]

As for “D: 20-mer peptide of the AKAP79 N-terminus walk, positions 36-55 (CFKRRKKAAKALKPKAGSEA; UniProt P24588 36-55, looked up, fragment)”, the “alphascreen signal compared to untreated samples (emission ratio with/without peptide)” value was “did not”.
